Laboratory results from patent US20150284467A1 (MAX DELBR CK CENTRUM F R MOLEKULARE MEDIZIN, published 2015).

What was measured:
[1] = biological target: T1, extracellular domain of human CD269 (BCMA, TNFRSF17), purified (human, UniProt Q02223 4-54); assay: SPR, value printed beside the trace for 30.0 nM BCMA; neither quantity nor unit is printed on the sheet: the five printed values average 5.40E-11, which is the mean Kd of 54 pM in paragraph 181
T1 construct: also called BCMA extracellular domain
T1 sequence: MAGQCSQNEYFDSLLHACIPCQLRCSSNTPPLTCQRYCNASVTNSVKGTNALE

[2] = biological target: T1, extracellular domain of human CD269 …; assay: SPR, value printed beside the trace for 90.0 nM BCMA; neither quantity nor unit is printed on the sheet: the five printed values average 5.40E-11, which is the mean Kd of 54 pM in paragraph 181
[3] = biological target: T1, extracellular domain of human CD269 …; assay: SPR, value printed beside the trace for 3.3 nM BCMA; neither quantity nor unit is printed on the sheet: the five printed values average 5.40E-11, which is the mean Kd of 54 pM in paragraph 181
[4] = biological target: T1, extracellular domain of human CD269 …; assay: surface plasmon resonance with several concentrations of BCMA (FIG. 1c)
[5] = biological target: T1, extracellular domain of human CD269 …; assay: SPR, value printed beside the trace for 10.0 nM BCMA; neither quantity nor unit is printed on the sheet: the five printed values average 5.40E-11, which is the mean Kd of 54 pM in paragraph 181
[6] = biological target: T1, extracellular domain of human CD269 …; assay: SPR, value printed beside the trace for 1.1 nM BCMA; neither quantity nor unit is printed on the sheet: the five printed values average 5.40E-11, which is the mean Kd of 54 pM in paragraph 181

B1: J22.9-xi chimeric antibody (mouse VH/VL of hybridoma J22.9 on human IgG1 and kappa constant domains) (antibody, V domains shown)
VH: QVQLQQSGGGLVQPGGSLKLSCAASGIDFSRYWMSWVRRAPGKGLEWIGEINPDSSTINYAPSLKDKFIISRDNAKNTLYLQMSKVRSEDTALYYCASLYYDYGDAMDYWGQGTSVTVSS
VL: DIVMTQSQRFMTTSVGDRVSVTCKASQSVDSNVAWYQQKPRQSPKALIFSASLRFSGVPARFTGSGSGTDFTLTISNLQSEDLAEYFCQQYNNYPLTFGAGTKLELKR
modifications: N-linked oligosaccharide chain at Asn297
notes: Full length IgG made in 293-6E cells; the constant domains are marked 'Used in J22.9-xi'
Kd [1]: 0.0695 nM | Kd [2]: 0.088 nM | Kd [3]: 0.0362 nM | Kd [4]: 0.054 nM | Kd [5]: 0.0555 nM | Kd [6]: 0.021 nM
